Test results reported in patent US20110008841A1.

Legend:
[1] = target: huIL-17RA-FLAG-polyHis (human) (UniProt Q96F46); test: Luminex binning; huIgG on bead 72 as capture, 2nd mAb A [D00012 FIG. 16B]
[2] = target: huIL-17RA-FLAG-polyHis (human) (UniProt Q96F46); test: Luminex binning; huIgG on bead 72 as capture, 2nd mAb B [D00012 FIG. 16B]
[3] = target: huIL-17RA-FLAG-polyHis (human) (UniProt Q96F46); test: Luminex binning; huIgG on bead 72 as capture, 2nd mAb C [D00012 FIG. 16B]
[4] = target: huIL-17RA-FLAG-polyHis (human) (UniProt Q96F46); test: Luminex binning; huIgG on bead 72 as capture, 2nd mAb D [D00012 FIG. 16B]
[5] = target: huIL-17RA-FLAG-polyHis (human) (UniProt Q96F46); test: Luminex binning; huIgG on bead 72 as capture, 2nd mAb E [D00012 FIG. 16B]
[6] = target: huIL-17RA-FLAG-polyHis (human) (UniProt Q96F46); test: Luminex binning; huIgG on bead 72 as capture, 2nd mAb F [D00012 FIG. 16B]
[7] = target: huIL-17RA-FLAG-polyHis (human) (UniProt Q96F46); test: Luminex binning; huIgG on bead 72 as capture, 2nd mAb M [D00012 FIG. 16B]
[8] = target: huIL-17RA-FLAG-polyHis (human) (UniProt Q96F46); test: Luminex binning; huIgG on bead 72 as capture, 2nd mAb I [D00012 FIG. 16B]
[9] = target: huIL-17RA-FLAG-polyHis (human) (UniProt Q96F46); test: Luminex binning; huIgG on bead 72 as capture, 2nd mAb J [D00012 FIG. 16B]
[10] = target: huIL-17RA-FLAG-polyHis (human) (UniProt Q96F46); test: Luminex binning; huIgG on bead 72 as capture, 2nd mAb K [D00012 FIG. 16B]
[11] = target: huIL-17RA-FLAG-polyHis (human) (UniProt Q96F46); test: Luminex binning; huIgG on bead 72 as capture, 2nd mAb L [D00012 FIG. 16B]
[12] = target: huIL-17RA-FLAG-polyHis (human) (UniProt Q96F46); test: Luminex binning; huIgG on bead 72 as capture, 2nd mAb N [D00012 FIG. 16B]
[13] = target: huIL-17RA-FLAG-polyHis (human) (UniProt Q96F46); test: Luminex binning; huIgG on bead 72 as capture, 2nd mAb O [D00012 FIG. 16B]
[14] = target: huIL-17RA-FLAG-polyHis (human) (UniProt Q96F46); test: Luminex binning; huIgG on bead 72 as capture, 2nd mAb Q [D00012 FIG. 16B]
[15] = target: huIL-17RA-FLAG-polyHis (human) (UniProt Q96F46); test: Luminex binning; huIgG on bead 72 as capture, 2nd mAb R [D00012 FIG. 16B]

normalized MFI [1]: 84
normalized MFI [2]: 37
normalized MFI [3]: 54
normalized MFI [4]: 123
normalized MFI [5]: 26
normalized MFI [6]: 140
normalized MFI [7]: 32
normalized MFI [8]: 22
normalized MFI [9]: 35
normalized MFI [10]: 100
normalized MFI [11]: 34
normalized MFI [12]: 56
normalized MFI [13]: 95
normalized MFI [14]: 28
normalized MFI [15]: 50
Substance: huIgG (antibody)
